The chains are these.
T1: Cpn20 mutant G32A (A. thaliana, UniProt O65282 51-253, G32A)
T1 sequence (looked up): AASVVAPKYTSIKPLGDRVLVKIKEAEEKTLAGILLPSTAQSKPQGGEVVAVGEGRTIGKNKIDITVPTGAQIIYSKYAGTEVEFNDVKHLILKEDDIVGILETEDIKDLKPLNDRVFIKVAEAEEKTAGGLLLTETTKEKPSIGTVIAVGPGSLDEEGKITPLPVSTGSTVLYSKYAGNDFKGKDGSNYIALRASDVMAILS

B1: Cpn60α2 (natural protein)
chain: not shown
notes: additional glycine-serine at the N-terminus; Cpn60α2, A. thaliana chloroplast chaperonin α subunit, At2g28000; alanine 46 chosen as the first amino acid of the mature protein; The vector codes for an octa-histidine tag followed by a TEV site
B2: Cpn10(2) co-chaperonin of A. thaliana (natural protein, UniProt O80504 40-139, looked up)
chain: IKAISTKWEPTKVVPQADRVLVRLEDLPIKSSGGVLLPKAAVKFERYLTGEIISVGSEVGQQVGPGKRVLFSDVSAYEVDLGTDARHCFCKESDLLALVE
notes: Cpn10(2), A. thaliana chloroplast co-chaperonin, At2g44650
B3: Cpn10(1) co-chaperonin of A. thaliana, lacking the N-terminal chloroplast transit peptide (natural protein, UniProt Q9M1C2 43-138, looked up)
chain: STKWEPAKVVPQADRVLVRLEVLPEKSSGGVLLPKSAVKFERYLTGEVVSVGSEVGEVEPGKKVLFSDMSAYEVDFGTEDAKHCFCKESDLLAIVQ
notes: Cpn10(1), A. thaliana chloroplast co-chaperonin, At3g60210, without the transit peptide; Serine 43 chosen as the first amino acid; Cloned between XhoI and NdeI of pET22b+; source: E. coli BL21(T7+), pET22b+, purified (Mono-Q, Superdex 200, Superdex 75)
B4: GroES (natural protein, E. coli, UniProt P0A6F9 1-97, looked up)
chain: MNIRPLHDRVIVKRKEVETKSAGGIVLTGSAAAKSTRGEVLAVGNGRILENGEVKPLDVKVGDIVIFNDGYGVKSEKIDNEEVLIMSESDILAIVEA
notes: GroES, the co-chaperonin (Cpn10) of E. coli
B5: Cpn20 co-chaperonin of A. thaliana (natural protein, UniProt O65282 51-253, looked up)
chain: T1 sequence (looked up) with A32G
notes: Cpn20, A. thaliana chloroplast co-chaperonin of two Cpn10-like domains joined head-to-tail, At5g20720

Positions count from the first letter of the chain named.

In one data set the target is T2, Cpn60β3 (A. thaliana, UniProt P21240 55-600).
T2 construct: Cpn60β3, A. thaliana chloroplast chaperonin β subunit, At1g55490
T2 sequence (P21240 55-600): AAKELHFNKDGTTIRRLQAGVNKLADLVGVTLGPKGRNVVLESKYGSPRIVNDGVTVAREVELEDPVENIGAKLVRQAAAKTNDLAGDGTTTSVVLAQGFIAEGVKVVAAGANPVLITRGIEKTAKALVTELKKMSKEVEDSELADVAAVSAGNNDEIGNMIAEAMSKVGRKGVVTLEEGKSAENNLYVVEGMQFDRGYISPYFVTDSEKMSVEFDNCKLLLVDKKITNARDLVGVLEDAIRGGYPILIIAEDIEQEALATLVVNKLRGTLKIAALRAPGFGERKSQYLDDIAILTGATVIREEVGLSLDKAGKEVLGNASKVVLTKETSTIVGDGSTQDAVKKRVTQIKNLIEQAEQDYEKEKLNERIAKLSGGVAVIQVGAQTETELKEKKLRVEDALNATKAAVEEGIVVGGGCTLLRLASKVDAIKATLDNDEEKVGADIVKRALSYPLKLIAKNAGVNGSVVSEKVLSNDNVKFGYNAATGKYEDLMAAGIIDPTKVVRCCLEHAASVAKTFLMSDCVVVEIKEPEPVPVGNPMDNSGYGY
As to the kind of experiment: SEC; reconstitution of 150 µM Cpn60α2 and 100 µM Cpn60β3 with 50 µM mt-cpn10, 5 mM ATP, 50 mM Tris-HCl pH 8, 300 mM NaCl, 10 mM MgCl2, 16 mM KCl, 2 mM DTT, 1 h 30°C; oligomers separated from monomers on Superdex 200 at room temperature. To be noted: both partners purified. (In general: In gel filtration, larger molecules generally elute earlier.)

A further data set concerns the target T1, Cpn20 mutant G32A. Put plainly: cell-based or functional assay.
Data set [1] concerns the molecule itself. As to the kind of experiment: cross-linking; 45 µM co-chaperonin with 1 mM DSS at room temperature, 50 mM Na-HEPES pH 7.5, 10 mM MgCl2, 100 mM KCl; time course; SDS gradient gel, Coomassie.
Data set [2] addresses B5. Put plainly: cell-based or functional assay.
Data set [3] deals with the molecule itself. Put plainly: native gel or EMSA; co-chaperonins at 100 µM (protomer) mixed at various ratios, 5 min at room temperature, 6% native acrylamide gel; no Cpn60 or ATP.

The term stoichiometry N denotes a count of units in the complex or per binding partner.

In the case of B1, the binding result with Cpn60β3 is reported as “binds”.
With B2, the “refolding of urea-denatured MDH by Cpn60αβ, Cpn10(2) titrated on a background of 20 µM G32A; at a 0.25 ratio of [co-chaperonin]/[Cpn60αβ], against 18.06% with Cpn10(2) alone” value with Cpn20 mutant G32A was 29.1%. The “stoichiometry N” value in data set [1] came out at 7.
For B3, the “refolding of urea-denatured MDH by 10 µM Cpn60αβ, Cpn20 titrated (0.625–20 µM) with constant 20 µM Cpn10(1); against 51.39% with Cpn20 alone (% of Cpn60αβ with mt-cpn10)” value in data set [2] was determined as 77.8%. In the data set with Cpn20 mutant G32A, the “refolding of urea-denatured MDH by GroEL with the combination of G32A and Cpn10(1), each inactive alone (% of GroEL with saturating GroES)” value is ~75%; the “refolding of urea-denatured MDH by chloroplast Cpn60αβ with the combination of G32A and Cpn10(1), each inactive alone (% of Cpn60αβ with mt-cpn10)” value is ~40%. The “stoichiometry N” value in data set [1] is 2.
Consider B4, for which, in data set [1], the “stoichiometry N” value was determined as 7.
Take B5: the binding result in data set [3] was “binds”.
